Assay results as given in the nanobody polyreactivity screen of Harvey et al. (2022).

Assay: yeast display, Sf9 membrane polyspecificity reagent, FACS + sequencing; frameworks hold sequencing errors
Summary of the method: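 Polyreactivity labels are assigned by the sorting gate from which each nanobody was recovered. The gates were low and high (top ~1%), set on anti-HA fluorescence for expression and streptavidin fluorescence for reagent binding. Before sorting, galactose-induced (36–48 hours) yeast display cells were stained for 1 hour at 4 °C with 10% biotinylated, detergent-solubilized Sf9 membrane reagent.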

Sequence	polyreactivity (PSR sort gate)
QVQLVESGGGLVQAGGSLRLAVLPPELTSTLNDMGWYRQAPGKERELVAAITRGGSTNYADSVKGRFTISRDNAKYTFYLQMNSMKPEDSAVYYCAAPYAGLRDGGDYWGQGTQVTVSS	low polyreactivity
QVQLVESGGGLVQAGGSLRLCCAASGITFNYYTMGWYRQAAGNERELVAAIRSGGRTYYADSVKGRFTISRDNAKNTVYLQMNSLKPEDTAVYYGAALAVTYPYDYWGQGTQVTVSS	high polyreactivity
QVQLVESGGGLVQAGGSLRLCCAASGSTFGYYAMGWYRQAPGKDRELVAVITWNGGGTYYADSVKGRFTISRDNAKNTVYLQMNSLKPEDTAVYDCAADASLYTDEYDYWGQGTQVTVSS	low polyreactivity
QVQLVESGGGLVQAGGSLRLCCAASGSTFYYYAMGWYRQAPGKVRELVASITTGGGSTYYADSVKGRFTISRDNAKNTVYLQMNSLKPEDTAVSYCAAALAYYYWWYDYWGQGTQVTASS	low polyreactivity
QVQLVESGGGLVQAGGSLRLCCAATGSIFPGNAMGWYRQAPGKEMELVATNTWSGGSTYYADSVKGRFTISRDNAKNTVYFQMKSLKPVDTAVYYCKADSSWFYQWKDYGMYDYWGQGTQVTVSS	low polyreactivity
QVQLVESGGGLVQAGGSLRLICAAAGFIFKRYAMGWYRQAPGKERELVAAITSNGGRTYYADSVKGRFTISRDNAKNTVYFQMNSLKPEDTEVYYCARVSQYYEQDDYWGQGTQVTVSS	high polyreactivity
QVQLVESGGGLVQAGGSLRLICAASASIFQPYAMGWYRQAPGKERELVAAISKSGGNTYYADSVKGRFSSSRDYAKNTVYLQMNRLKPEVSAVYYCAALDYWGQGTQVTLSS	low polyreactivity
QVQLVESGGGLVQAGGSLRLICAASGFAFSYYAMGWYRQAPGKEREFVASIDWSGGSTYYADSVKGRFTISRDNEKNTVYLQMNSLKPEDTAVYYCAAELDYFPGYDYWGQGTQVTVSS	low polyreactivity
QVQLVESGGGLVQAGGSLRLICAASGFIFASNAMGWYRQAPGTERELVASITRGGTTKYADSVKGRFTISRDNAKNTVYLQMNSLKPEDTAVYYCAKRYVRFPWRMDYWGQGTQVTVSS	high polyreactivity
QVQLVESGGGLVQAGGSLRLICAASGFIFDAYAMGWYRQAPGKERELVAAISRTGGSTYYADSVKGRFTISRDNAKNTVYLQMNSLKPEDTAVYYCTAYKSHDDYYWGQGTQITVSS	high polyreactivity
QVQLVESGGGLVQAGGSLRLICAASGFIFDPYAMGSYRQATGKVRELVAAISSGGSTYYADSVKGRFTISRDNAKNTVYLQMNSLKPEDNAVYYCAKVYVRYDSSTQTYLNTYGYWGQGTQVTVSS	high polyreactivity
QVQLVESGGGLVQAGGSLRLICAASGFIFFINDMGWYRQAPGKEREWVAAISWSGGSTYYADSVKGRFTISRDNEKNNFYIQMNSLKAEETAGYYFKTDVPTAQYDYWGQGTQVTVSS	low polyreactivity
QVQLVESGGGLVQAGGSLRLICAASGFIFGHNAMGWYRQAPGKERELVAAITWRGRTYYADSVKGRFTISRDNAKNCVYLQMNSMKPEDTSVFSCNAYVRYGYDYWGQGTQVTVSS	high polyreactivity
QVQLVESGGGLVQAGGSLRLICAASGFIFNSNAMGWYRQAPGKERELVAAISGRGGSTYYADSVKGRVTISRDNAKNTVYLQMNSLKPEDTAVYYCAAKLRPRYYVSGYDYWGQGTQVTVSS	high polyreactivity
QVQLVESGGGLVQAGGSLRLICAASGFIFPHNTMGWYRQAPGKERELVAAISSGGSTNYADSVKGRFTLSRDNAKNTVYLQMNSLKPEDTAVYYCATVSVRWPSNDHVRYDYWGQGTQVTVSS	low polyreactivity
QVQLVESGGGLVQAGGSLRLICAASGFIFRTNAMGWYRQAPGKQRELVAAISRSGNTYYADSVKGRFTISRDNAKNTVYLQMNSLKPEDTAVYYCAAQSVRWYSTFKYYYWGQGTQVTVSS	high polyreactivity
QVQLVESGGGLVQAGGSLRLICAASGFIFTSYTMGWYRQAPGKERELVAAISRSGGRTYYADSVKGRFTISRDNAKNTVYLQMNRLKPVDTAVYYCNAGYPASYYYYGFDYWGQGTQVTVSS	high polyreactivity
QVQLVESGGGLVQAGGSLRLICAASGFIFWRYAMGWYRQAPGKERELVAAISRTSTSTYYADSVKGRFTISRDNAKNSVYLQMNSLKPEDTAVYYCAATFSTFYGYGYWGQGSQVTVSS	high polyreactivity
QVQLVESGGGLVQAGGSLRLICAASGFIFWSNAMGWYRQAPGKEMELVAAITWNGGDTYYADSVKGRFTISRDNAKNTVYLQMNSLKPEDTAVYYCAAVHSRRARYDYWGQGTQVTVSS	low polyreactivity
QVQLVESGGGLVQAGGSLRLICAASGFILNSYAMGWYRQAPGKERELVAAITRSGGNTFYADSVKGRFKISRDNAKNTVYLQLNSLKPDDTAVYYCNAYFTYWSQLYYWGQGTQVTVSS	high polyreactivity
QVQLVESGGGLVQAGGSLRLICAASGFIMRPYTMGWYRQAPGKERELVAAITSGGRTYYADSVKGRFTISRDNAKNTVYLQMNSLKPEDTAVYYCAALTYYRTVRTFSYPYDYWGQGTQVTVSS	high polyreactivity

Sequence	polyreactivity (PSR sort gate)
QVQLVESGGGLVQAGGSLRLICAASGFTFGYYPMGWYRQAPGKERELVAAINWSGVNTNYADSVKGRFTISRDNAKNTVYLQMNSVKPEDTAVYYCAADAGYDGYGYWGQGTQVTVSS	low polyreactivity
QVQLVESGGGLVQAGGSLRLICAASGFTFNWYAMGWYRQAPGKERELVATISSTGSTYYADSVKGRFTISRDNAKNTVYLQMNSQKPEDTGVYYCAVRRPPYSYYWDFDSWGQGTPVTVSS	high polyreactivity
QVQLVESGGGLVQAGGSLRLICAASGFTFRAYAMGWYRQAPGKERELVAAISTVGGSTYYADSVKGRFTISRDNAKNTVYLQMNSLKPEETAVYYCAARRRTGREYGYWGKGTQVTVSS	high polyreactivity
QVQLVESGGGLVQAGGSLRLICAASGFTFRGYAMGWYRQAPGKERELVAAIRRGVITNYADSVNGRFTISRDNAKNTVYLQMNSLKPEDTAVYYCAAGNITPYRYYHGYYQSIYDYWGQGTIVTVSS	low polyreactivity
QVQLVESGGGLVQAGGSLRLICAASGFTFSWYVMGWYRQAPGKERELVATITNRGGSTYYADSVKGRFTISRDTAKNTVYLQMNSLKPEDTAVYYCAARKKGSRVGYDYCGQGTQVTVSS	high polyreactivity
QVQLVESGGGLVQAGGSLRLICAASGFTFSYYAMVWYRQAPGKERELVAVISDRGGITYYADSVKGRFTISRDNAKNTVYLQMNSLKPEDTAVYYCAAQNPRYNYRYYYWGQGTQVTVSS	low polyreactivity
QVQLVESGGGLVQAGGSLRLICAASGFTFYLYTMGWYRPAPGKERELVASIRRSGGSTYYADSVKGRFTISRDNAKNTVYLQMNSLKPEDTAVYYCAKRTFLVSGPRSYGWYGVYYWGQGTQVTVSS	high polyreactivity
QVQLVESGGGLVQAGGSLRLICAASGFTFYRYAMGWYRQAPGKERELVAAITRSGGSTYYADSVKGRFTISRDNAKNTVYLQMNSLKPEDTAVYYCARTYWITNSKFRDYLGAYGGDYWGQGTQVTVSS	high polyreactivity
QVQLVESGGGLVQAGGSLRLICAASGFTFYYYAMGWYRQAPGKEWELVAAISRNGVSTYYADSVKGRFTISRDNAKNTVYLQMNSLKPEDTAVYYCASGYGSLHVNYLGQGTQVTVSS	low polyreactivity
QVQLVESGGGLVQAGGSLRLICAASGFTYSWYAMGWYRQAPGKERELVAAISWDGDSTYYADSVKGRFTISRDIAKNSVYLQMISLKPEDTAVYYCAADFSYYWVGYDYWGQGTQVTVSS	high polyreactivity
QVQLVESGGGLVQAGGSLRLICAASGGIFNRYAMGWYRQAPGKEREFVASISRRGGSTYYADSVKGRFTISRDNAKNTVYLQMNSLKPDDTAVYFCGAEYNSEYDYWGQGTQVTVSS	high polyreactivity
QVQLVESGGGLVQAGGSLRLICAASGGIIYYYAMGWYRQAPGKERELVAGITSAGSTYYADSVKGRFTISRDNAKNTVYLQMNSLKPEDTAVYYCKDAWPGYYWYYDDDYWGQGTQVTVSS	low polyreactivity
QVQLVESGGGLVQAGGSLRLICAASGGTFRAYVMGWYTQAPGKERELVAAISRSGTRTYYSDSVKGRFTISRDNAKNTVYFQMNSLKPEDTAVYYCAAAAKSWLFDYWGQGTLVTVSS	high polyreactivity
QVQLVESGGGLVQAGGSLRLICAASGIIFPVYDMGWYRQAPGKERELVASITDSGGSTSYADSVKGRFTISRDNAKNTVYLQLNSLKPEDTAVYYCAVTDSDTNYYGYLSYDYWGQGTQVNVSS	low polyreactivity
QVQLVESGGGLVQAGGSLRLICAASGITFFRNAMGWYRQAPGKERELVATITKSGGSTYYADSVKGRFTISRDNAKNTVYLQMNSLKPDDTSVYYCSAVRRYPVKYVAYDYWGQGTQVTVSS	low polyreactivity
QVQLVESGGGLVQAGGSLRLICAASGITFSYYALGRSRQAPGKERELVAAISVTGGSTYYADSVKGRFTISRDNAKNTVYLQMNSLKPEDTAVYYCAADSYYYDGDYWGQGTQVTVSS	high polyreactivity
QVQLVESGGGLVQAGGSLRLICAASGITFVTYAMGWYRQAPGKERELVAAISRSGGRTYYADSVKGRFTISRDNAKNTVYLQMNSLKPEDTSVYYCAAERKNKYDYWGQGTQVTVSS	high polyreactivity
QVQLVESGGGLVQAGGSLRLICAASGITFYIYAMGWYRQAPGKERELVATISWSDGRTYYADSVKGRFTISRDNAKNTVYLQMNSLKPEDTAVYYCAADWWYYQFDYEYWGQGTQVTVSS	low polyreactivity
QVQLVESGGGLVQAGGSLRLICAASGLTFADYAMGWYRPAPGKERELVAAISRRGGSTYYADSVKGRFTISRDNAKNTVYLQMNSLKPEDTAVYYCAAYAYDVAFKRYKFDYWGQGTEVTVSS	high polyreactivity
QVQLVESGGGLVQAGGSLRLICAASGLTFNYYVMGWYRQAPGKERELVAAISYSGGRTYYADSVKGRFTISRDNANNTVYLQMNSLKPEDTAVYFCNVTGHRNSFIYYGGYEYWGQGTQVTVSS	high polyreactivity
